This note sets out measurements from patent US20040209800A1, “Use of mx gtpases in the prognosis and treatment of cancer” (priority 2001, published 2004).

One assay deals with PC-3 cells. In words: MxA protein induction, immunohistochemistry and Western blot. Format: cell-based, human. The following applies: 1000 IU of IFN-α/mL, 24 hours. On the procedure:
(§1) PC-3 and PC-3M test cells also were treated with recombinant IFN-α (Novartis Pharma—Basel, Switzerland) (1000 IU of IFN-α/mL), grown for 24 hours, fixed, permeabilized, and subjected to immunohistochemical analysis using anti-MxA antibody and DAPI nuclear counterstaining to locate individual cells. […] Western blotting with […] using 100 μg cell lysates confirmed IFN-α-induced increase in MxA expression in both cell lines.

Assay [1] relates to PC-3M cells. The assay is described as above. To be noted: 1000 IU of IFN-α/mL, 24 hours. Format: cell-based, human. Here is the method:
as §1

Assay [2] relates to PC-3M cells. Description: Time-lapse video microscopy of cell motility. Format: cell-based, human. To be noted: PC-3M-MxA vs PC-3M-β-gal cells, 250 minute recording. Here is the method:
Using time-lapse video microscopy, PC-3M cells stably transfected with an MxA construct (as described in Example 2) were observed and compared to control PC-3M-β-gal cells. Specifically, PC-3M-βgal and PC-3M-MxA cells were seeded in 25 cm^2 flasks and cultured for 24 hours. After 24 hours, the flasks were filled with pre-warmed complete medium and cell motility was observed using by phase-contrast microscopy using an Optronics cooled CCD camera mounted on a Leica DMIRB inverted microscope. During observation, the cells were maintained at 37° C. using an ASI 400 Air Stream Incubator (Nevtek—Burnsville, Va.). Time-lapse video microscopy (250 minute recording converted into 1 minute of playing time) was converted into QuickTime movies using Adobe Premier 5.1.

Assay [3] has as its system PC-3M cells. In words: Experimental hepatic metastasis assay. Format: in vivo, beige/SCID mice. To be noted: 2×10^6 PC3M-MxA cells into the spleen; β-gal control 23.3±3.3 days. Here is the method:
The in vivo effects of MxA expression on tumor growth and metastatic potential was also tested using an experimental hepatic metastasis assay. Briefly, 2×10^6 cells from the PC3M-MxA cell line and the PC-3M-β-gal cell line were injected into the spleens of beige/SCID mice. Mice were monitored at least three times weekly for evidence of tumor development, quantification of tumor size, and evidence of tumor and/or metastasis-associated morbidity. Animal survival time was determined, and mean survival time was compared between the two treatment groups.

For assay [4], the system named is PC-3M cells. In words: In vitro motility, migration through 8-μm pore membrane. Format: cell-based, human. To be noted: 24 hours. Here is the method:
The PC-3M cells of Example 1 were transfected with a pCIneo plasmid (Promega, Madison, Wis.) expressing full-length MxA or a plasmid constructed from pHβ Apr-1 comprising an MxA sequence operably linked to a CMV promoter, and two stable cell lines were selected. PC-3M cells stably transfected with a plasmid expressing β-galactosidase (β-gal) were used as a control. MXA expression was not detected in the PC-3M β-gal cells.
The motility of PC-3M transfectants in vitro was tested by measuring the ability of the cells to migrate through pores in a membrane. Briefly, FALCON cell culture inserts with an 8-μm pore-size PET membrane (Fisher Scientific, Franklin Lake, N.J.) were placed into the wells of a 24-well plate, each well containing 0.5 ml of complete medium (RPMI 1640 with 10% FBS, 1% antimycotic-antibiotic solution, and 500 μg mL^−1 G418). Control and MxA-transfected cells were trypsinized, suspended at 1.5×10^5 cells/ml in complete medium, and 350μl of the cell suspension was added to each insert. Following incubation for 24 hours at 37° C., cells from the upper surface of the membrane were removed by scrubbing with a cotton swab. Cells that had migrated through the insert and adhered to the bottom of the membrane were Wright stained using the CAMCO Quik Stain kit (Fisher Scientific), visualized using a Zeiss Axiophot microscope or Leica DMIRB microscope, and counted.

For assay [5], the system named is PC-3M cells. Description: Primary tumor growth assay. Format: in vivo, beige/SCID mice. To be noted: 2×10^6 PC3M-MxA cells subcutaneously; β-gal control 29.8±3.4 days. On the procedure: The effect of MxA expression on tumor growth in vivo was first tested using a primary tumor growth assay. 2×10^6 recombinant PC-3M cells expressing […] MxA (PC3M-MxA) or 2×10^6 recombinant PC-3M-β-gal cells (expressing β-gal) were injected subcutaneously into 30 beige/SCID mice (Charles River Laboratories, Wilmington, Mass.), and the time to formation of a 2-cm subcutaneous tumor (as measured using Vernier calipers) was determined by monitoring the mice at least three times weekly for evidence of tumor development, quantification of tumor size, and evidence of tumor/metastasis-associated morbidity. Subcutaneous tumor size was quantified using Vernier Calipers. Criteria for sacrifice included tumor growth to greater than 2.0 cm, ill thrift, anorexia, dehydration, decreased activity and grooming behavior, and dyspnea.

For another assay, the system named is LOX cells. In words: In vitro invasion, BIOCOAT Matrigel invasion chamber. To be noted: stably transfected LOX cells vs β-gal control LOX cells. Format: cell-based, human.
Assay [6] concerns insoluble cytoskeletal matrix. Description: Cytoskeletal extraction and anti-FLAG immunological analysis. Format: cell-based. To be noted: transfected LOX cells, anti-FLAG antibody. On the procedure: MxA-LOX cells and T103 MxA-LOX cells were subjected to immunological analysis using known techniques (see Choi et al., J. Biol. Chem., 272:28479-28484 (1997)) with an anti-FLAG antibody after cytoskeletal extraction, which removed all the soluble proteins, leaving only cytoskeleton-associated proteins. Cytoskeletal preparations were prepared by permeabilizing the cells with 1% Triton X-100 in PHEM buffer (60 mM piperazine-N-N′-bis(2-ethane-sulfonic acid) (PIPES; pH 6.9), 25 mM N-2-hydroxyethlypiperazine-N′-2-ethanesulfonic acid (HEPES), 2 mM MgCl2, and 10 mM ethylene glycol-bis(b-aminoethyl ether)-N,N,N′N′-tetraacetic acid (EGTA, pH 6.9)) for 2 minutes, fixing the cells with 3.7% formaldehyde for 10 minutes at room temperature (see Hartwig, J. Cell Biol. 118:1421-1442 (1992)). Fixed cells were incubated with appropriate primary and secondary antibodies and the nuclei counterstained with 4,6-daimidino-2-phenylinodole (DAPI). Cells were visualized with a Zeiss Axiophot microscope and images were captured using an Optronics CCD camera.
To further investigate the relationship between MxA and microtubules, soluble proteins were extracted from the LOX cells, using standard techniques, and the insoluble cytoskeletal matrix was examined for associated proteins.

The test system of the next assay is tubulin. In words: Coimmunoprecipitation with anti-α-tubulin and anti-MxA antibodies. Format: binding. The following applies: transfected LOX cell lysates. On the procedure: (§2) Immunoprecipitation was performed by known techniques (Bang et al., Proc. Natl. Acad. Sci. USA 91:5330-5334 (1994)). Briefly, cell lysates were obtained and incubated with the indicated antibodies overnight at 4° C. The immunocomplex was immobilized on protein A/G-Sepharose (Santa Cruz Biotechnologies), resolved on SDS-polyacrylamide gels, transferred to nitrocellulose filters, and immunoblotted with the indicated antibodies.
Using the LOX cells stably transfected with the […] MxA construct, as described in the preceding Examples, whole cell lysates were prepared and immunoprecipitated with anti-α-tubulin antibodies, anti-MxA antibodies, and protein A/protein G-coated Sepharose beads alone, and the resulting compositions were subjected to Western blotting with anti-FLAG antibody (Sigma).

The next assay has as its system actin. Description: Coimmunoprecipitation with actin in PC-3 cells. It counts as binding, human. The following applies: endogenous MxA in PC-3 cells. Here is the method: as §2

Entries after “also recorded” stand apart in the source; their conditions may differ.

In the case of IFN-α, the “level of MxA protein after exposure to IFN-α” value in the assay on PC-3 cells is on record as “increased substantially”; with PC-3M cells [1] it was “became detectable”.

B1: MxA: full-length human MxA GTPase, 78 kDa, expressed from a transfected plasmid in PC-3M or LOX cells (protein)
chain: MVVSEVDIAKADPAAASHPLLLNGDATVAQKNPGSVAENNLCSQYEEKVRPCIDLIDSLRALGVEQDLALPAIAVIGDQSSGKSSVLEALSGVALPRGSGIVTRCPLVLKLKKLVNEDKWRGKVSYQDYEIEISDASEVEKEINKAQNAIAGEGMGISHELITLEISSRDVPDLTLIDLPGITRVAVGNQPADIGYKIKTLIKKYIQRQETISLVVVPSNVDIATTEALSMAQEVDPEGDRTIGILTKPDLVDKGTEDKVVDVVRNLVFHLKKGYMIVKCRGQQEIQDQLSLSEALQREKIFFENHPYFRDLLEEGKATVPCLAEKLTSELITHICKSLPLLENQIKETHQRITEELQKYGVDIPEDENEKMFFLIDKVNAFNQDITALMQGEETVGEEDIRLFTRLRHEFHKWSTIIENNFQEGHKILSRKIQKFENQYRGRELPGFVNYRTFETIVKQQIKALEEPAVDMLHTVTDMVRLAFTDVSIKNFEEFFNLHRTAKSKIEDIRAEQEREGEKLIRLHFQMEQIVYCQDQVYRGALQKVREKELEEEKKKKSWDFGAFQSSSATDSSMEEIFQHLMAYHQEASKRISSHIPLIIQFFMLQTYGQQLQKAMLQLLQDKDTYSWLLKERSDTSDKRKFLKERLARLTQARRRLAQFPG
Consider B1, for which the “mobility of PC-3M cells by visual observation” value in the assay on PC-3M cells [2] is reported as “significantly inhibited”. The molecule also gave a survival in the assay on PC-3M cells [3] of 54.3 ± 11.2 days. The “motility, % of the β-gal control cells” value in the assay on PC-3M cells [4] (PC-3M stably expressing MxA, lowest level seen) is recorded as 24.3%. Moreover, the “motility, % lower than the β-gal control cells” value in the assay on PC-3M cells [4] (all MxA-expressing PC-3M cells, both cases tested) is “at least 22.4%”. Moreover, in the assay with PC-3M cells [5], the “time to develop a 2-cm tumor mass” value came out at 46.8 ± 9.9 days. For the same molecule, the “in vitro invasive activity, % of control cells” value with LOX cells was 15.1%. In addition, the “association with insoluble cytoskeletal matrix after cytoskeletal extraction” value in assay [6] was “remained bound to the matrix”. The “association with tubulin by coimmunoprecipitation” value in the assay with tubulin was “associated with cell microtubules and particularly tubulin; also recorded: detected in the complex with tubulin”. The co-immunoprecipitation with actin result in the assay with actin is listed as “did not co-immunoprecipitate”.

B2: T103 mutant MxA: FLAG-tagged MxA with threonine 103 mutated to alanine; the mutation inactivates GTPase activity (protein)
chain: MVVSEVDIAKADPAAASHPLLLNGDATVAQKNPGSVAENNLCSQYEEKVRPCIDLIDSLRALGVEQDLALPAIAVIGDQSSGKSSVLEALSGVALPRGSGIVARCPLVLKLKKLVNEDKWRGKVSYQDYEIEISDASEVEKEINKAQNAIAGEGMGISHELITLEISSRDVPDLTLIDLPGITRVAVGNQPADIGYKIKTLIKKYIQRQETISLVVVPSNVDIATTEALSMAQEVDPEGDRTIGILTKPDLVDKGTEDKVVDVVRNLVFHLKKGYMIVKCRGQQEIQDQLSLSEALQREKIFFENHPYFRDLLEEGKATVPCLAEKLTSELITHICKSLPLLENQIKETHQRITEELQKYGVDIPEDENEKMFFLIDKVNAFNQDITALMQGEETVGEEDIRLFTRLRHEFHKWSTIIENNFQEGHKILSRKIQKFENQYRGRELPGFVNYRTFETIVKQQIKALEEPAVDMLHTVTDMVRLAFTDVSIKNFEEFFNLHRTAKSKIEDIRAEQEREGEKLIRLHFQMEQIVYCQDQVYRGALQKVREKELEEEKKKKSWDFGAFQSSSATDSSMEEIFQHLMAYHQEASKRISSHIPLIIQFFMLQTYGQQLQKAMLQLLQDKDTYSWLLKERSDTSDKRKFLKERLARLTQARRRLAQFPG
modifications: left off: small tags and cut ends
In the case of B2, the “in vitro invasive activity, % of control cells” value in the assay with LOX cells was found to be 119%. Further, the “association with insoluble cytoskeletal matrix after cytoskeletal extraction” value in assay [6] is “undetectable; also recorded: washed out of the insoluble preparation”. For the same molecule, in the assay with tubulin, the “association with tubulin by coimmunoprecipitation” value is given as “did not associate”.
